Tests used:
CCL2 = CCL2 (UniProt P13500)
Biotinylated CCL21 = Biotinylated CCL21 (UniProt O00585)
CCL7 = CCL7 (UniProt P80098)
[1] = biological target: Link_TSG6 (recombinant Link module from human TSG-6) (human) (UniProt P98066); experiment: SPR; Link_TSG6 amine-coupled to a C1 chip (800–1000 RU), chemokine as analyte; BIAcore 3000; 10 mM HEPES, 150 mM NaCl, 0.05% Tween 20, pH 7.4; 40 μl/min; 1:1 Langmuir model; apparent affinities
Sequence of Link_TSG6 (recombinant Link module from human TSG-6) (human) (P98066 36-133): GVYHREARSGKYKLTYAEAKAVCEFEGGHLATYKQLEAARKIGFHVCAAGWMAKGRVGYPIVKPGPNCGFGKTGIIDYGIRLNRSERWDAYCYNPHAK

Sequence of Link_TSG6 (recombinant Link module from human TSG-6) (P98066 36-133): as above
Sequence of CCL7 (P80098 24-99): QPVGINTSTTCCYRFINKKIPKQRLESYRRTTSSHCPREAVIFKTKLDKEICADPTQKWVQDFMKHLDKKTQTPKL
Sequence of Biotinylated CCL21 (O00585 24-134): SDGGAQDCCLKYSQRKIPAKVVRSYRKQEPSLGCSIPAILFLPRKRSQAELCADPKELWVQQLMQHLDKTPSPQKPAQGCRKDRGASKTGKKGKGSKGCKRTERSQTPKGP
Sequence of CCL2 (P13500 24-99): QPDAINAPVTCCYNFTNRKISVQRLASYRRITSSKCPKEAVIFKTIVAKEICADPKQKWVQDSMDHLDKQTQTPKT

| Substance | accumulation of biotinylated CXCL4 (10 nM) on EaHY926 endothelial cells after pre-incubation with a 5-fold molar excess of Link TSG6 (% of chemokine alone) (Biotinylated CXCL4) | accumulation of CCL2 (50 nM) on EaHY926 endothelial cells after pre-incubation with Link TSG6 at 1:1 to 5:1 molar ratio (∼75 to ∼55% of chemokine alone) (% of chemokine alone) (CCL2) | accumulation of biotinylated CCL21 (50 nM) on EaHY926 endothelial cells after pre-incubation with Link TSG6 at a 1:1 molar ratio (% of chemokine alone) (Biotinylated CCL21) | accumulation of CCL7 (50 nM) on EaHY926 endothelial cells after pre-incubation with Link TSG6 at a 1:1 molar ratio (% of chemokine alone) (CCL7) | Kd [1] | koff [1] | kon [1] |
| --- | --- | --- | --- | --- | --- | --- | --- |
| Link_TSG6 (recombinant Link module from human TSG-6) (from UniProt P98066 36-133) (domain or fragment) | 51 | 75 | 50 | 50 | – | – | – |
| CXCL4 (ligand) | – | – | – | – | 3.9 nM | 0.0014 s⁻¹ | 360000 M⁻¹ s⁻¹ |
